Assay results taken from paper PMC3979729.

Biological target: TNFR (human (endogenous in primary CD4+ T cells)) (UniProt P19438)
UniProt P19438, sequence (P19438 30-455): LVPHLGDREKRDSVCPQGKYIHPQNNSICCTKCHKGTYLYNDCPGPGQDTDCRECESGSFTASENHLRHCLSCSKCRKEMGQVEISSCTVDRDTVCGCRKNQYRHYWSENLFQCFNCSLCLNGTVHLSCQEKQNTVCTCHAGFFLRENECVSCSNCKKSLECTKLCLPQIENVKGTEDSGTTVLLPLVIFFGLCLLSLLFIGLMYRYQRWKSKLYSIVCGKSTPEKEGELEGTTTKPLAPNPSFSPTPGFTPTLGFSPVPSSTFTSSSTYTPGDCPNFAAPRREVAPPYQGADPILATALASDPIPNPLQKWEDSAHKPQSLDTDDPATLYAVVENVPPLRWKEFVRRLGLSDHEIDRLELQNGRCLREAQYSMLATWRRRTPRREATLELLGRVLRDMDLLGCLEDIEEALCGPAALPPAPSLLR

tumor necrosis factor alpha (TNF-α) (from UniProt P01375 1-233) (ligand)
other (% necroptosis): 0.3
